Like-named read-outs stand apart in the source and are kept apart here.
Legend:
[1] = target: T1, GST-human NOGO-A56 (human, UniProt Q9NQC3 586-785); test: SPR off-rate ranking, supernatant from small-scale transient transfection over immobilised GST-human NOGO-A56; single experiment
T1 construct: GST-tagged fusion expressed in E. coli BL21 from pGEX-6P1; also called hNOGO; human NOGO 5+6 GST; not shown: Glutathione S-transferase tag encoded by vector pGEX-6P1 (N-terminal, with vector linker)
T1 sequence: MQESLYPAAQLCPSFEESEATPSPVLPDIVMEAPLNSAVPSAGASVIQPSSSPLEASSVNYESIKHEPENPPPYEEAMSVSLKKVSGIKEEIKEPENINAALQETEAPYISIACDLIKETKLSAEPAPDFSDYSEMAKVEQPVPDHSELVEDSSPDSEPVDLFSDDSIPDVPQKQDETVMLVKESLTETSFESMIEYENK

[2] = target: T1, GST-human NOGO-A56; test: SPR (Biacore), GST-human NOGO-A56 immobilised, purified antibody as analyte; single experiment
[3] = target: T1, GST-human NOGO-A56; test: as above; remark: listed apart in the source
[4] = target: T1, GST-human NOGO-A56; test: as above; remark: listed apart in the source

B1: H22L16 (antibody, human IgG1, kappa, V domains shown)
VH: QVQLVQSGAEVKKPGASVKVSCKASGYTFTSYWMHWVKQRPGQGLEWIGNINPSNGGTNYNEKFKSKATMTRDTSTSTAYMELSSLRSEDTAVYYCELGQGYWGQGTLVTVSS
VL: DIVMTQSPLSNPVTLGQPVSISCRSSKSLLYKDGKTYLNWFLQRPGQSPQLLIYLMSTRASGVPDRFSGGGSGTDFTLKISRVEAEDVGVYYCQQLVEYPLTFGQGTKLEIKR
notes: human gamma1 mutated constant region, human kappa
For B1, the koff [1] was 0.00778 s⁻¹, the Kd [2] was 1.33 nM and the koff [2] was 0.00759 s⁻¹. It also gave a kon [2] of 5.69e+06 M⁻¹ s⁻¹, a Kd [3] of 1.47 nM and a koff [3] of 0.0069 s⁻¹. The kon [3] was 4.9e+06 M⁻¹ s⁻¹, the Kd [4] was 1.32 nM and the koff [4] was 0.00767 s⁻¹. It also gave a kon [4] of 5.83e+06 M⁻¹ s⁻¹.

B2: H1L11 (antibody, human IgG1, kappa, V domains shown)
VH: QVQLVQSGAEVKKPGASVKVSCKASGYTFTSYWMHWVRQAPGQGLEWMGNINPSNGGTNYNEKFKSRVTMTRDTSTSTVYMELSSLRSEDTAVYYCELGQGYWGQGTLVTVSS
VL: DIVITQSPLSLPVTLGQPASISCRSSKSLLYKDGKTYLNWFQQRPGQSPQLLIYLMSTRASGVPDRFSGGGSGTDFTLKISRVEAEDVGVYYCQQLVEYPLTFGQGTKLEIKR
In the case of B2, the koff [1] is reported as 0.0196 s⁻¹, the Kd [2] is reported as 18.4 nM and the koff [2] is reported as 0.0219 s⁻¹. For the same binder, the kon [2] was 1.19e+06 M⁻¹ s⁻¹, the Kd [3] was 22.3 nM and the koff [3] was 0.031 s⁻¹. It also gave a kon [3] of 1.4e+06 M⁻¹ s⁻¹, a Kd [4] of 21 nM and a koff [4] of 0.0282 s⁻¹. The kon [4] was 1.34e+06 M⁻¹ s⁻¹.

B3: H6L13 (antibody, human IgG1, kappa, V domains shown)
VH: QVQLVQSGAEVKKPGASVKVSCKASGYTFTSYWMHWVRQAPGQGLEWIGNINPSNGGTNYNEKFKSRATMTRDTSTSTAYMELSSLRSEDTAVYYCELGQGYWGQGTLVTVSS
VL: DIVMTQSPLSLPVTLGQPASISCRSSKSLLYKDGKTYLNWFQQRPGQSPQLLIYLMSTRASGVPDRFSGGGSGTDFTLKISRVEAEDVGVYYCQQLVEYPLTFGQGTKLEIKR
Work on B3 yielded a Kd [2] of 8.1 nM, a koff [2] of 0.0155 s⁻¹ and a kon [2] of 1.91e+06 M⁻¹ s⁻¹. It also gave a Kd [3] of 6.4 nM, a koff [3] of 0.014 s⁻¹ and a kon [3] of 2.2e+06 M⁻¹ s⁻¹. For the same binder, the Kd [4] was 7.76 nM, the koff [4] was 0.0157 s⁻¹ and the kon [4] was 2.02e+06 M⁻¹ s⁻¹.

B4: H16L13 (antibody, human IgG1, kappa)
heavy: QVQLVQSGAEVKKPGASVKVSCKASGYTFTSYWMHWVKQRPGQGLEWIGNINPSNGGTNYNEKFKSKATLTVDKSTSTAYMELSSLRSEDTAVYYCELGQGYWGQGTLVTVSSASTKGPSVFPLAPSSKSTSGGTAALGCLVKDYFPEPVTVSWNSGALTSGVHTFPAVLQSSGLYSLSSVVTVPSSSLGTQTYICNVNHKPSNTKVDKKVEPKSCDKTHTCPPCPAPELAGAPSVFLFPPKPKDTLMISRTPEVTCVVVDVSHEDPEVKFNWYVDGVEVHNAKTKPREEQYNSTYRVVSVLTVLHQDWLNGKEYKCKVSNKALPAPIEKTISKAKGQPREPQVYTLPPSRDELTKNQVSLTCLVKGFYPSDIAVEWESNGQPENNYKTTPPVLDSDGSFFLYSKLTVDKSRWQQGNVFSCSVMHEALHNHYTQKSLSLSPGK
light: DIVMTQSPLSLPVTLGQPASISCRSSKSLLYKDGKTYLNWFQQRPGQSPQLLIYLMSTRASGVPDRFSGGGSGTDFTLKISRVEAEDVGVYYCQQLVEYPLTFGQGTKLEIKRTVAAPSVFIFPPSDEQLKSGTASVVCLLNNFYPREAKVQWKVDNALQSGNSQESVTEQDSKDSTYSLSSTLTLSKADYEKHKVYACEVTHQGLSSPVTKSFNRGEC
With B4 the koff [1] was 0.0138 s⁻¹, the Kd [2] was 2.53 nM and the koff [2] was 0.0121 s⁻¹. For the same binder, the kon [2] was 4.76e+06 M⁻¹ s⁻¹.

B5: H16L18 (antibody, human IgG1, kappa, V domains shown)
VH: QVQLVQSGAEVKKPGASVKVSCKASGYTFTSYWMHWVKQRPGQGLEWIGNINPSNGGTNYNEKFKSKATLTVDKSTSTAYMELSSLRSEDTAVYYCELGQGYWGQGTLVTVSS
VL: DIVMTQDPLSNPVTLGQPVSISCRSSKSLLYKDGKTYLNWFLQRPGQSPQLLIYLMSTRASGVSDRFSGSGSGTDFTLKISRVEAEDVGVYYCQQLVEYPLTFGQGTKLEIKR
For B5, the koff [1] was 0.00566 s⁻¹.

B6: H19L13 (antibody, human IgG1, kappa, V domains shown)
VH: QVQLVQSGAEVKKPGASVKVSCKASGYTFTSYWMHWVRQRPGQGLEWIGNINPSNGGTNYNEKFKSRATMTRDTSTSTAYMELSSLRSEDTAVYYCELGQGYWGQGTLVTVSS
VL: DIVMTQSPLSLPVTLGQPASISCRSSKSLLYKDGKTYLNWFQQRPGQSPQLLIYLMSTRASGVPDRFSGGGSGTDFTLKISRVEAEDVGVYYCQQLVEYPLTFGQGTKLEIKR
B6 gave a koff [1] of 0.013 s⁻¹.

B7: H19L16 (antibody, human IgG1, kappa, V domains shown)
VH: QVQLVQSGAEVKKPGASVKVSCKASGYTFTSYWMHWVRQRPGQGLEWIGNINPSNGGTNYNEKFKSRATMTRDTSTSTAYMELSSLRSEDTAVYYCELGQGYWGQGTLVTVSS
VL: DIVMTQSPLSNPVTLGQPVSISCRSSKSLLYKDGKTYLNWFLQRPGQSPQLLIYLMSTRASGVPDRFSGGGSGTDFTLKISRVEAEDVGVYYCQQLVEYPLTFGQGTKLEIKR
In the case of B7, the koff [1] is reported as 0.00873 s⁻¹.

B8: H21L13 (antibody, human IgG1, kappa, V domains shown)
VH: QVQLVQSGAEVKKPGASVKVSCKASGYTFTSYWMHWVRQRPGQGLEWIGNINPSNGGTNYNEKFKSKATMTRDTSTSTAYMELSSLRSEDTAVYYCELGQGYWGQGTLVTVSS
VL: DIVMTQSPLSLPVTLGQPASISCRSSKSLLYKDGKTYLNWFQQRPGQSPQLLIYLMSTRASGVPDRFSGGGSGTDFTLKISRVEAEDVGVYYCQQLVEYPLTFGQGTKLEIKR
In the case of B8, the koff [1] is reported as 0.012 s⁻¹.

B9: H22Lc (antibody, human IgG1, kappa, V domains shown)
VH: QVQLVQSGAEVKKPGASVKVSCKASGYTFTSYWMHWVKQRPGQGLEWIGNINPSNGGTNYNEKFKSKATMTRDTSTSTAYMELSSLRSEDTAVYYCELGQGYWGQGTLVTVSS
VL: DIVITQDELSNPVTSGESVSISCRSSKSLLYKDGKTYLNWFLQRPGQSPQLLIYLMSTRASGVSDRFSGSGSGTDFTLEISRVKAEDVGVYYCQQLVEYPLTFGAGTKLELKR
Binder B9 has a koff [1] of 0.00467 s⁻¹.

Source: patent EP1899377B1 (GLAXO GROUP LIMITED, dated 2012)
